Test results published in paper PMC11417995 (2024).

Molecular target: ubiquitin (Homo sapiens, UniProt P0CG47)
Experiment: PPI-CONA

B1: CDC34A (protein)
chain: MARPLVPSSQKALLLELKGLQEEPVEGFRVTLVDEGDLYNWEVAIFGPPNTYYEGGYFKARLKFPIDYPYSPPAFRFLTKMWHPNIYETGDVCISILHPPVDDPQSGELPSERWNPTQNVRTILLSVISLLNEPNTFSPANVDASVMYRKWKESKGKDREYTDIIRKQVLGTKVDAERDGVKVPTTLAEYCVKTKAPAPDEGSDLFYDDYYEDGEVEEEADSCFGDDEDDSGTEES
modifications: CC0651
How did the Kd turn out when B1 was run?
Its Kd is 12.2 µM.
